The numbers were not newly measured in article PMC3773300 (Journal of inorganic biochemistry, 2013), which cites them from elsewhere.

For this data set the following is noted: Mb.

As to “Mb: Myoglobin, heme protein involved in reversible O2 binding”, the redox potential is 59 mV.
